T1: human CD63 (human, UniProt P08962 2-238)
T1 construct: stably transfected in NIH3T3/hCD63; The cell line is named under assay; also called hCD63
T1 sequence: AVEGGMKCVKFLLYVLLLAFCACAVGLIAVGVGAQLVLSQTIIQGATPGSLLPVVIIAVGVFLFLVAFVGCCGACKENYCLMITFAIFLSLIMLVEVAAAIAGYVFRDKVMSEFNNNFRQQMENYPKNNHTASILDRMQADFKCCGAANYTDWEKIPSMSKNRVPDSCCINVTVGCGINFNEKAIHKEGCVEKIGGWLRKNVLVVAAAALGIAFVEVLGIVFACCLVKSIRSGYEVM


Key:
human CD63 [1] = biological target: T1, human CD63; experiment: flow cytometry, HEK293 cells
Method: Relative cell surface binding of the anti-CD63 antibodies to human CD63 expressing cells was accessed via flow cytometry using CD63 positive HEK293 cells (ATCC, Cat #CRL-1573), which endogenously express human CD63, and CD63 negative HEK293/CD63 knock out cells. For the assay, cells were plated in PBS without calcium and magnesium (VWR, Cat #45000-446), containing 2% FBS (Saradigm Cat #1500-500) (Staining Buffer) in 96 well V-bottom plates (Axygen Scientific, Cat #P-96-450-V-C-S). Cells were then incubated with anti-CD63 antibodies or isotype control antibodies at concentrations ranging from 100 nM to 1.7 pM for 30 minutes on ice. Wells containing no antibody were used as controls. HEK293/CD63KO cells were stained with only the highest concentration (100 nM) of the antibodies. […] Cells were then washed and fixed using a 50% solution of Cytofix (BD Biosciences, Cat #554655) diluted in PBS. Samples were run on the Intellicyte Hypercyt flow cytometer and results were analyzed in ForeCyt software (Intellicyte) to calculate the mean fluorescent intensity (MFI). Measured values were analyzed using a four parameter logistic equation over a 12-point response curve using GraphPad Prism and the resulting EC₅₀ values are reported (Table 12). The signal to noise ratio (S/N) was determined by calculating the ratio of the anti-CD63 antibodies or the control antibodies MFI to the wells containing no antibodies (Table 12).

[2] = biological target: T2, recombinant human CD63 extracellular loop 2 expressed with a C-terminal human Fc tag (human); experiment: SPR Biacore, mAb captured, 25C
T2 construct: also called hCD63 EC loop 2-hFc; human CD63 EC loop 2-Fc
How it was run: (§1)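 Anti-CD63 mAbs captured on anti-mouse Fc or anti-human Fab surfaces; CD63 EC2 reagents flowed in HBS-ET, pH 7.4, at 25° C or 37° C. ka and kd from 1:1 binding model with mass transport limitation; KD and t½ calculated from kinetic rates.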

human CD63 [3] = biological target: T1, human CD63; experiment: cell-based or functional assay
human CD63 [4] = biological target: T1, human CD63; experiment: ECL, LNCAP cells
How it was run: (§2)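 Detached cells (~2.0×10⁴/well: NIH3T3/hCD63, LNCAP, U87MG, or parental NIH3T3 as negative control) were plated on carbon-electrode plates and blocked with 2% BSA. Anti-CD63 or isotype antibodies (1.7 pM–100 nM, in duplicate) were bound 1 h at RT, then washed. Signal read as electrochemiluminescence.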

human CD63 [5] = biological target: T1, human CD63; experiment: ECL, NIH3T3/hCD63 cells
How it was run: as §2

[6] = biological target: T2, recombinant human CD63 extracellular …; experiment: SPR Biacore, mAb captured, 37C
How it was run: as §1

[7] = biological target: T3, recombinant human CD63 extracellular loop 2 expressed with a C-terminal Myc-Myc-hexahistidine (human); experiment: SPR Biacore, mAb captured, 37C
T3 construct: also called hCD63 EC loop 2-MMH; human CD63 EC loop 2-MMH
How it was run: as §1

human CD63 [8] = biological target: T1, human CD63; experiment: ECL, U87MG cells
How it was run: as §2

T2 sequence (chain, as listed by the source limits assumed): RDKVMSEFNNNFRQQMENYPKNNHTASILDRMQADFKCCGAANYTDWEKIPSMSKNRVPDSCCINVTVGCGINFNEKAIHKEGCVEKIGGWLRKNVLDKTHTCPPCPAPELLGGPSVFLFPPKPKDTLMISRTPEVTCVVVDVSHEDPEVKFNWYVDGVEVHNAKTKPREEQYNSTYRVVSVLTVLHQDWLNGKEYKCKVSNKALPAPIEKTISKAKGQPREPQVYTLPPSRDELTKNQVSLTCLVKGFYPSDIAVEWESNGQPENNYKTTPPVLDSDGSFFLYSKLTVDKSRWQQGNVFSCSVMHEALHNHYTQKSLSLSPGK
T3 sequence (chain, as listed by the source limits assumed): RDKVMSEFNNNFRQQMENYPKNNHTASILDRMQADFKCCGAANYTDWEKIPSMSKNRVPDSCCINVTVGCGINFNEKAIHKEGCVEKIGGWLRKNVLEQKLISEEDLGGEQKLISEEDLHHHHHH

Row | EC50 (human CD63 [1]) | S/N (MFI over no-antibody wells) (human CD63 [1]) | 100 nM Ag Bound (RU) [2] | Kd [2] | koff [2] | kon [2] | t1/2 [2] | % Internalization, T47D cells (human CD63 [3]) | Total Internalized RFU, T47D cells (human CD63 [3]) | EC50 (human CD63 [4]) | binding ratio at 3.7 nM vs NIH3T3 (human CD63 [4]) | EC50 (human CD63 [5]) | binding ratio at 3.7 nM vs NIH3T3 (human CD63 [5]) | 100 nM Ag Bound (RU) [6] | Kd [6] | koff [6] | kon [6] | t1/2 [6] | 100 nM Ag Bound (RU) [7] | Kd [7] | Binder | other results
1 | 0.5 nM | 26.7 | 134 RU | 0.15 nM | 4.66e-05 s⁻¹ | 320000 M⁻¹ s⁻¹ | 248 min | 60.9% | 1.79e+06 RFU | 1.4 nM | 20 fold | 0.97 nM | 281 fold | 138 RU | 0.119 nM | 4.89e-05 s⁻¹ | 411000 M⁻¹ s⁻¹ | 236 min | 58 RU | 1.15 nM | H2M12450N (antibody, V domains shown, also called H2aM12450N; mAb12450) VH: QVQLQESGPKVVKPSETLSLTCTVSGGSISSYYWNWIRQSPGKGLEWIGYTKRGYTDYNPSLRSRVTISEDTSKNQFSLRISSVTAADTAVYYCAQMGWGSHAFDMWGQGTMVAVSS VL: EIVLTQSPGTLSLSPGERATLSCRASQSVNSRYLAWYQQKPGQAPRLLIYGASSRATGIPDRCSGSGSGTDFTLTISRLEPEDFAVYYCQQYGSSPWTFGQGTKVEIK | koff [7]: 0.000201 s⁻¹; kon [7]: 175000 M⁻¹ s⁻¹; t1/2 [7]: 57 min; EC50 (human CD63 [8]): 1.4 nM; binding ratio at 3.7 nM vs NIH3T3 (human CD63 [8]): 272 fold
2 | 1.8 nM | 31.6 | 107 RU | 0.704 nM | 8.4e-05 s⁻¹ | 119000 M⁻¹ s⁻¹ | 138 min | 73.7% | 1.71e+06 RFU | 0.35 nM | 18 fold | 0.29 nM | 256 fold | 118 RU | 0.509 nM | 0.000331 s⁻¹ | 651000 M⁻¹ s⁻¹ | 35 min | 44 RU | 21.4 nM | H1M12451N (antibody, V domains shown) VH: QVQLQESGPGLMKPSETLSLTCTVSGGSFSSYYWNWIRQSPGKGLEWIGYIRYSGDTNYKPSLKSRFTISIDTSKNLFSLRLKSVTAADTAVYYCARMGLGSDAFDIWGQGTMVTVSS VL: EIVLTQSPGTLSLSPGERATLSCRASQSVNNNYLAWYQQKPGQAPRLLIYGVFNRATNIPDRFSGSGSGTDFTLTISRLEPEDFAVYYCQQYGSSPWTFGQGTKVEIK | koff [7]: 0.0019 s⁻¹; kon [7]: 88900 M⁻¹ s⁻¹; t1/2 [7]: 6 min; EC50 (human CD63 [8]): 0.79 nM; binding ratio at 3.7 nM vs NIH3T3 (human CD63 [8]): 171 fold
3 | 1.9 nM | 21 | 117 RU | 0.753 nM | 0.00051 s⁻¹ | 677000 M⁻¹ s⁻¹ | 23 min | 73.2% | 1.24e+06 RFU | 1.7 nM | 7 fold | 0.57 nM | 91 fold | 123 RU | 3.38 nM | 0.00179 s⁻¹ | 529000 M⁻¹ s⁻¹ | 6 min | 31 RU | 56.4 nM | H2M12395N (antibody, V domains shown, also called H2aM12395N) VH: QVQLQESGPRLVKPSETLSLTCIVSGGSISNFYWNWIRQSPGKGLEWIGYFFYTGTIDYNPSLKSRVTISLDTSKNQFSLNLRLLTAADAAVYYCARMGLGANAFDIWGHGTMVTVSS VL: EIVLTQSPGTLSLSPGERATLSCRASQHVSSNYLAWYQQKPGQAPRLLIYGGSSRATGIPDRFSGSGSGTDFTLTISRLEPADFAVFYCQQYGNSPWTFGQGTKVEMK | koff [7]: 0.00932 s⁻¹; kon [7]: 165000 M⁻¹ s⁻¹; t1/2 [7]: 1 min; EC50 (human CD63 [8]): 0.95 nM; binding ratio at 3.7 nM vs NIH3T3 (human CD63 [8]): 52 fold

— patent US20210079109A1 (Regeneron, published 2021)
